Experimental data: publication PMC5404317

B1: PINK1-V5 WT (V5-6xHis-tagged PINK1 wild type) [human] / CDC37 [human (endogenous in HeLa)] (parent)
chain 1: MAVRQALGRGLQLGRALLLRFTGKPGRAYGLGRPGPAAGCVRGERPGWAAGPGAEPRRVGLGLPNRLRFFRQSVAGLAARLQRQFVVRAWGCAGPCGRAVFLAFGLGLGLIEEKQAESRRAVSACQEIQAIFTQKSKPGPDPLDTRRLQGFRLEEYLIGQSIGKGCSAAVYEATMPTLPQNLEVTKSTGLLPGRGPGTSAPGEGQERAPGAPAFPLAIKMMWNISAGSSSEAILNTMSQELVPASRVALAGEYGAVTYRKSKRGPKQLAPHPNIIRVLRAFTSSVPLLPGALVDYPDVLPSRLHPEGLGHGRTLFLVMKNYPCTLRQYLCVNTPSPRLAAMMLLQLLEGVDHLVQQGIAHRDLKSDNILVELDPDGCPWLVIADFGCCLADESIGLQLPFSSWYVDRGGNGCLMAPEVSTARPGPRAVIDYSKADAWAVGAIAYEIFGLVNPFYGQGKAHLESRSYQEAQLPALPESVPPDVRQLVRALLQREASKRPSARVAANVLHLSLWGEHILALKNLKLDKMVGWLLQQSAATLLANRLTEKCCVETKMKMLFLANLECETLCQAALLLCSWRAAL
chain 2: MVDYSVWDHIEVSDDEDETHPNIDTASLFRWRHQARVERMEQFQKEKEELDRGCRECKRKVAECQRKLKELEVAEGGKAELERLQAEAQQLRKEERSWEQKLEEMRKKEKSMPWNVDTLSKDGFSKSMVNTKPEKTEEDSEEVREQKHKTFVEKYEKQIKHFGMLRRWDDSQKYLSDNVHLVCEETANYLVIWCIDLEVEEKCALMEQVAHQTIVMQFILELAKSLKVDPRACFRQFFTKIKTADRQYMEGFNDELEAFKERVRGRAKLRIEKAMKEYEEEERKKRLGPGGLDPVEVYESLPEELQKCFDVKDVQMLQDAISKMDPTDAKYHMQRCIDSGLWVPNSKASEAKEGEEAGPGDPLLEAVPKTGDEKDVSV
B2: PINK1-V5 WT (V5-6xHis-tagged PINK1 wild type) [human] / TOM40 [human (endogenous in HeLa)] (parent)
chain 1: B1 chain 1
chain 2: MGNVLAASSPPAGPPPPPAPALVGLPPPPPSPPGFTLPPLGGSLGAGTSTSRSSERTPGAATASASGAAEDGACGCLPNPGTFEECHRKCKELFPIQMEGVKLTVNKGLSNHFQVNHTVALSTIGESNYHFGVTYVGTKQLSPTEAFPVLVGDMDNSGSLNAQVIHQLGPGLRSKMAIQTQQSKFVNWQVDGEYRGSDFTAAVTLGNPDVLVGSGILVAHYLQSITPCLALGGELVYHRRPGEEGTVMSLAGKYTLNNWLATVTLGQAGMHATYYHKASDQLQVGVEFEASTRMQDTSVSFGYQLDLPKANLLFKGSVDSNWIVGATLEKKLPPLPLTLALGAFLNHRKNKFQCGFGLTIG

Columns and labels:
[1] = variants of: B1; assay: co-immunoprecipitation (V5 agarose) with western blot quantification; settings: HeLa cells, read off a plot
[2] = variants of: B2; assay: as above; settings: HeLa cells, read off a plot

| Variant | response (cdc37/V5 ratio) ([1]; 10 μM CCCP for 2 h) | response (cdc37/V5 ratio) ([1]; untreated (no CCCP)) | response (Tom40/V5 ratio) ([2]; 10 μM CCCP for 2 h) | response (Tom40/V5 ratio) ([2]; untreated (no CCCP)) |
| --- | --- | --- | --- | --- |
| chain 1 I368N | 0.66 | 0.61 | – | – |
| chain 1 I368N | – | – | 0.32 | 0.42 |

The remaining lines, values ahead:

| response (cdc37/V5 ratio) ([1]; 10 μM CCCP for 2 h) | response (cdc37/V5 ratio) ([1]; untreated (no CCCP)) | response (Tom40/V5 ratio) ([2]; 10 μM CCCP for 2 h) | response (Tom40/V5 ratio) ([2]; untreated (no CCCP)) | Variant |
| --- | --- | --- | --- | --- |
| 0.55 | 0.58 | – | – | chain 1 L347P |
| – | – | 0.19 | 0.35 | chain 1 L347P |
